# According to patent US20070292390A1:
# What was measured:
# [1] = molecular target: tethered gp140 89.6 (HIV-1 isolate 89.6) (UniProt Q73372); assay: competition ELISA; competitor (coated): Fab m48; biotinylated gp140 89.6; competing antibody at 12 µg/ml
# [2] = molecular target: tethered gp140 89.6 (HIV-1 isolate 89.6) (UniProt Q73372); assay: competition ELISA; competitor (coated): Fab m45; biotinylated gp140 89.6; competing antibody at 12 µg/ml
# [3] = molecular target: tethered gp140 89.6 (HIV-1 isolate 89.6) (UniProt Q73372); assay: competition ELISA; competitor (coated): Fab m44; biotinylated gp140 89.6; competing antibody at 12 µg/ml
# [4] = molecular target: tethered gp140 89.6 (HIV-1 isolate 89.6) (UniProt Q73372); assay: competition ELISA; competitor (coated): Fab m43; biotinylated gp140 89.6; competing antibody at 12 µg/ml
# [5] = molecular target: tethered gp140 89.6 (HIV-1 isolate 89.6) (UniProt Q73372); assay: competition ELISA; competitor (coated): Fab m47; biotinylated gp140 89.6; competing antibody at 12 µg/ml
Substance,"Inhibition, % [1]","Inhibition, % [2]","Inhibition, % [3]","Inhibition, % [4]","Inhibition, % [5]"
Fab Z13,87%,0%,57%,72%,41%
IgG 2F5 (antibody),74%,0%,38%,51%,31%
IgG 4E10 (antibody),63%,6%,42%,29%,10%
